Assays:
[1] = test system: plasmacytoid dendritic cells; assay type: cell-based, mouse; details: pDC differentiated with TLR agonist on day 3, stimulated with ODN1826 (1 μg/ml), 24 hours, ELISA; vs conventional pDC
[2] = biological target: TLR2 receptor (Mus musculus, UniProt Q9QUN7); assay type: binding
[3] = test system: TLR2 receptor; assay type: binding, mouse; details: 5 μg/ml, 2 hours; compared to untreated group

Sequence of TLR2 receptor (Mus musculus, UniProt Q9QUN7) (Q9QUN7 25-784): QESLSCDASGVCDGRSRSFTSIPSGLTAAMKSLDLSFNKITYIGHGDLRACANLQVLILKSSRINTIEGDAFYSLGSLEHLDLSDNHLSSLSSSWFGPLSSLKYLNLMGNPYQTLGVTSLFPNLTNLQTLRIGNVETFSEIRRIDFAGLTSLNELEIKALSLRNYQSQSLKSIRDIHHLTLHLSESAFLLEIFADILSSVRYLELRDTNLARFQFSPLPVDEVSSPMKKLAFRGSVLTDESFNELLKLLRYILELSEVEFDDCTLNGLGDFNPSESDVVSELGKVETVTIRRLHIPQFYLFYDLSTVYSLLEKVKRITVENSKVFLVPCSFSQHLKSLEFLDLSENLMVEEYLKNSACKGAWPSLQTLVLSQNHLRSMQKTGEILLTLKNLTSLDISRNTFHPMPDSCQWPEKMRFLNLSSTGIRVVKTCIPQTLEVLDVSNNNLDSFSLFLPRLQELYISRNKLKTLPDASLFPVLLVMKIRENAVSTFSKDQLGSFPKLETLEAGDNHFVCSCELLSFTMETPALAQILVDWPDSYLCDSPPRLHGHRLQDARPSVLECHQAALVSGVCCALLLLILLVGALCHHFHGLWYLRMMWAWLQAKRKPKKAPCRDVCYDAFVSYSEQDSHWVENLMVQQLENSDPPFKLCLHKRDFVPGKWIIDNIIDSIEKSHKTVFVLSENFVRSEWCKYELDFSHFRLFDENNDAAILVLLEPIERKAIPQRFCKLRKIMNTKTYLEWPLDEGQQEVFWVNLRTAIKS

B1: Rv1411c protein: His-labeled protein derived from M tuberculosis, confirmed as TLR2 agonist (protein, UniProt P9WK45 27-236, looked up)
Lipoarabinomannan carrier …: CSSGSKPSGGPLPDAKPLVEEATAQTKALKSAHMVLTVNGKIPGLSLKTLSGDLTTNPTAATGNVKLTLGGSDIDADFVVFDGILYATLTPNQWSDFGPAADIYDPAQVLNPDTGLANVLANFADAKAEGRDTINGQNTIRISGKVSAQAVNQIAPPFNATQPVPATVWIQETGDHQLAQAQLDRGSGNSVQMTLSKWGEKVQVTKPPVS
modifications: His tag
notes: His-labeled protein derived from M tuberculosis, confirmed as TLR2 agonist
[1]
  expression level of IFN-α: drastically reduced in a concentration-dependent manner
  expression level of IFN-β: drastically reduced in a concentration-dependent manner
  expression level of IL-10: marked increase in a concentration-dependent manner
  expression level of IL-12p70: drastically reduced in a concentration-dependent manner
  expression level of TNF-α: drastically reduced in a concentration-dependent manner
[2]
  binding to TLR2 receptor: binds to the TLR2 receptor
  binding to wild-type dendritic cells (WT): increased binding
[3]
  binding strength to TLR2 knockout-derived dendritic cells (TLR2−/−): the same as that in the untreated experimental group

Source: patent US20200190473A1, “Plasmacytoid Dendritic Cells Having Immune Tolerance, and Method for Producing Same” (QURATIS INC., priority 2017, published 2020)
